Test results published in article PMC8659124, “Structural Analysis of Saccharomyces cerevisiae Dihydroorotase Reveals Molecular Insights into the Tetramerization Mechanism” (Molecules, 2021).
Several values for one entry are separate records, joined by “and”; a condition that tells them apart may be missing. Equal values may be shown once.

Columns and labels:
[1] = molecular target: DHOase domain of human CAD (human); assay: cross-linking; glutaraldehyde 1%, individual DHOase 3 uM, 4 C, 20 min; Coomassie Blue-stained SDS-PAGE
[2] = molecular target: Klebsiella pneumonia DHOase (Klebsiella pneumonia); assay: as above
[3] = molecular target: the molecule itself; assay: SEC; Superdex 200 prep grade, protein 10 mg/mL in 20 mM MES, 100 mM NaCl, pH 6.0, 0.5 mL/min; calibrated with proteins of known molecular weight
[4] = molecular target: the molecule itself; assay: cross-linking; glutaraldehyde 0.5%, DHOase 3 uM, 4 C, 20 min; Coomassie Blue-stained SDS-PAGE
[5] = molecular target: the molecule itself; assay: crystal structure; complex form I with malate, 16% PEG 4000, 100 mM imidazole-malate, pH 7.0, room temperature; PDB 6L0A, 1.79 A, space group P2(1), four molecules per asymmetric unit
[6] = molecular target: the molecule itself; assay: cross-linking; glutaraldehyde 1%, individual DHOase 3 uM, 4 C, 20 min; Coomassie Blue-stained SDS-PAGE

Question: With “DHOase domain of human CAD (domain or fragment)” as the molecule, how does the stoichiometry N [1] read?
Answer: The stoichiometry N was 2.

Question: Klebsiella pneumonia DHOase (enzyme) was tested. Which stoichiometry N [2] did it give?
Answer: The stoichiometry N was 2.

B1: Saccharomyces cerevisiae dihydroorotase (enzyme)
chain: MVQEIDLGLTCDMHVHVREGAMCELVTPKIRDGGVSIAYIMPNLQPPITTLDRVIEYKKTLQKLAPKTTFLMSFYLSKDLTPDLIHEAAQQHAIRGVKCYPAGVTTNSAAGVDPNDFSAFYPIFKAMQEENLVLNLHGEKPSVHDGDKEPIHVLNAEEAFLPALKKLHNDFPNLKIILEHCTSESAIKTIEDINKNVKKATDVKVAATLTAHHLFLTIDDWAGNPVNFCKPVAKLPNDKKALVKAAVSGKPYFFFGSDSAPHPVQNKANYEGVCAGVYSQSFAIPYIAQVFEEQNALENLKGFVSDFGISFYEVKDSEVASSDKAILFKKEQVIPQVISDGKDISIIPFKAGDKLSWSVRWEPR
modifications: carbamylated lysine (Kcx) at 98
notes: Dihydroorotase of Saccharomyces cerevisiae, the monofunctional DHOase encoded by an independent gene; monomer about 40 kDa; Two Zn ions and malate in the active site of each subunit in the crystals; also called ScDHOase; DHOase
Question: With B1 as the molecule, how does the “stoichiometry N” value [3] read?
Answer: Its value is ~2 and ~4.1.

Question: And the “stoichiometry N” value [4]?
Answer: Its value is 2.

Question: And the “stoichiometry N” value [5]?
Answer: The value was 4.

B2: Salmonella enterica serovar Typhimurium LT2 DHOase (enzyme, UniProt P06204 1-348, looked up)
chain: MTAPSQVLKIRRPDDWHVHLRDGDMLKTVVPYTSEIYGRAIVMPNLASPITTVDAAIAYRQRILDAVPAGHDFTPLMTCYLTDSLDADELERGFHEGVFTAAKLYPANATTNSSHGVTSVDAIMPVLERMEKLGIPLLVHGEVTHADVDIFDREARFIDTVMEPLRQRLTALKVVFEHITTKDAAQYVRDGNDYLAATITPQHLMFNRNDMLVGGIRPHLYCLPILKRNIHQQALRELVASGFTRAFLGTDSAPHSRHRKETSCGCAGCFNAPSALGSYAAVFEEMNALAHFEAFCSLNGPQFYGLPMNTGWVELVRDEQQIPGNIALADDSLVPFLAGETVRWSVKK
notes: Dihydroorotase of Salmonella enterica serovar Typhimurium LT2; also called StDHOase
Question: B2 was tested. Which “stoichiometry N” value [6] did it give?
Answer: The value was 2.
